Reference: article PMC6075789, “Comparative proteomics of the two T. brucei PABPs suggests that PABP2 controls bulk mRNA” (PLoS Neglected Tropical Diseases, 2018)
Where two headings read alike, the source gives them in different places.

T1: G1-IP2 eYFP fusion protein (T. brucei, UniProt Q387L6 1-435)
T1 construct: The methods say N-terminal eYFP for all proteins but RBP23; the results print the label G1-IP2-eYFP; source: T. brucei procyclic Lister 427, expressed from the endogenous locus, in lysate of cryomilled cells; not shown: eYFP, N-terminal, kept
T1 sequence (looked up): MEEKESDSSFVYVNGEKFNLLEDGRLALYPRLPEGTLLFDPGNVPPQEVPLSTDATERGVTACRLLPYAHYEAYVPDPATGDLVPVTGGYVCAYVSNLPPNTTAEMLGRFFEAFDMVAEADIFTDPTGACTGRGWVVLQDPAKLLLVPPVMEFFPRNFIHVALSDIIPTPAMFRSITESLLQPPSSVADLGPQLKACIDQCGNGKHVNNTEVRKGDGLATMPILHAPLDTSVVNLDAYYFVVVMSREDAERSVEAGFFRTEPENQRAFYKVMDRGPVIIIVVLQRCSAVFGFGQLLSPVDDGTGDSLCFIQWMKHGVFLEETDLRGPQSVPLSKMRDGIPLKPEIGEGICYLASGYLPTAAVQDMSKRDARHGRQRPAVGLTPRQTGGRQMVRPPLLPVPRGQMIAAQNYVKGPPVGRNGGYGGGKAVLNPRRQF


Tests used:
[1] = target: eIF4E4 eYFP fusion protein (T. brucei); test: co-IP; eYFP fusion of eIF4E4 or G1-IP2 precipitated from cryomilled powder in low salt buffer with anti-GFP nanobody LaG16-LaG2 on magnetic beads; co-precipitated PABP-4Ty1 detected by western blot with anti-Ty1 (BB2); enrichment against beads without antibody, two replicates
[2] = target: T1, G1-IP2 eYFP fusion protein; test: as above

Row | Molecule | enrichment ratio against control beads without antibody [1] [fold] | enrichment ratio against control beads without antibody [2] [fold] | enrichment ratio against control beads without antibody ([2]; partners not purified) [fold]
1 | PABP2-4Ty1 (natural protein) | 3 | 19 | –
2 | PABP1-4Ty1 (natural protein, T. brucei, UniProt Q38E63 1-566, looked up, also called PABP-Ty1; source: T. brucei procyclic Lister 427, expressed from the endogenous locus, in lysate of cryomilled cells) MTIAAQGVPSGPSATKPLQVASLYVGDLDPAINEPQLVDIFKPYGTILNVRVCRDIITQRSLGYGYVNYDDVNSASKAMEELNFKRVGEKCIRIMWQQRDPALRYSGSGNIFVKNLKEEVDSRELSLIFKKFGEILSCKVMDDESGKSRGYGFVHFKDDDAAKAAIEKMNGDKEHADADKAALYVANFIRRNARLAALVANFTNVYIKQLLPTVDKDVIEKFFSKFGGITSAAICKDKNGRAFAFCNFEKHDDAVKAIEASHDQEVEGVTQPGEKLYVQRAQPRSERLIALRQKYMQCQSLGNNLYVRNFDAEFTEKDLNELFKEYGVIRSCRVMTDANGISRGFGFVSFENADQANAALREMNGRMLNGKPLVVNIAQRRDQRLTMLKLQLQQRLQMMMHHMHPPPFGMPGHPLQRRNARSGGRGNRPHPRQQQPQPQPEPQPPLATTVPPAAAHSVMFTAPSMGFSAVPRTPQASPAIAPDTPPLPPISAEDLQQMSVDEQRAALGDRLYIKVHELAPDHAPKITGMFLEMNPKEALALLSNPKLMHEKVTEALCVLKVHASSA | 64 | – | 4
